{"source": "patent US20220332804A1", "about": "(CSL INNOVATION, published 2022)", "assay_in_all_cases": "SPR, antibody captured, C2 as analyte;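 note: biacore SPR at 37 °C, anti-C2 mAbs captured via goat anti-human IgG on CM5 chips, double-referenced sensorgrams fit to a 1:1 kinetic or steady-state model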", "key": {"[1]": {"target": "T1, human C2 I272A (human, UniProt P06681 21-752)", "T1 sequence": "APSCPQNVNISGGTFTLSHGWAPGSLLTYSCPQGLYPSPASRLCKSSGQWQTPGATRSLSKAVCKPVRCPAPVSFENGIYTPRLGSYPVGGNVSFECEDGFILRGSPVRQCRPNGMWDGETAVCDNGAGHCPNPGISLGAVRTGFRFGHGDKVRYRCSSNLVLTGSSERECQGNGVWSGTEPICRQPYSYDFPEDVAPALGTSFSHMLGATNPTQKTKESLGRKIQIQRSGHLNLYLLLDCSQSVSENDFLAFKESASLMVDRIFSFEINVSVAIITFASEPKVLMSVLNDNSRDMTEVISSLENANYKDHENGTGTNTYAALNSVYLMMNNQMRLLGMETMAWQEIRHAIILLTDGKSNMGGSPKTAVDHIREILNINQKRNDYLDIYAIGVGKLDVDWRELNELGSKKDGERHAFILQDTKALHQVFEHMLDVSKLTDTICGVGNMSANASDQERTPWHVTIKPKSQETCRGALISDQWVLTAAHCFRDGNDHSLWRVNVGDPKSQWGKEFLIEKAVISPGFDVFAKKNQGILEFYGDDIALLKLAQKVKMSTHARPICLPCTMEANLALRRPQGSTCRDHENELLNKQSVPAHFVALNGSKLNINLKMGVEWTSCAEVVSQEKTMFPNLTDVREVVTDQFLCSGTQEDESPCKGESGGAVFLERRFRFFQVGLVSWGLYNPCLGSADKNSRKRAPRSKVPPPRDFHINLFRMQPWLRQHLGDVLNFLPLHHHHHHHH"}, "[2]": {"target": "T2, human C2 Y702A (human, UniProt P06681 21-752)", "T2 sequence": "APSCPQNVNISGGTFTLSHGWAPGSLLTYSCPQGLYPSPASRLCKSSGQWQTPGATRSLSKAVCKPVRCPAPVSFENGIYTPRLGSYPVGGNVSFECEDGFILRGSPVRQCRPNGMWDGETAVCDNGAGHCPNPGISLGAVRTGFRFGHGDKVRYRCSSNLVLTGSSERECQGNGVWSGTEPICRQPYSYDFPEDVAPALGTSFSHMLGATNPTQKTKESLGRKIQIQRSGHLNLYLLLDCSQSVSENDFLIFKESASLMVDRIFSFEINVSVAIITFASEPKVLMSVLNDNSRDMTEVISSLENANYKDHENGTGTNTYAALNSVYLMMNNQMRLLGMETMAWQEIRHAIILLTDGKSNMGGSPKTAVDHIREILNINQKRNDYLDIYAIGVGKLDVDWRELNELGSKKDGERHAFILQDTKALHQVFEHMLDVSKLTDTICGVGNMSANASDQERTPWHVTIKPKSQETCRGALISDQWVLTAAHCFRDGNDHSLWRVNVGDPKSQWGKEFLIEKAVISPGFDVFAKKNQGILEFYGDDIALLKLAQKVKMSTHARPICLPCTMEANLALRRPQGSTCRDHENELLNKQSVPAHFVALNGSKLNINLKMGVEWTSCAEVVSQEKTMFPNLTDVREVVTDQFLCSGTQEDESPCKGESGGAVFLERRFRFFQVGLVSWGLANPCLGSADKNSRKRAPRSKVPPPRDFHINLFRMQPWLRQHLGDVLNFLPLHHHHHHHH"}, "[3]": {"target": "T3, human C2 I320A (human, UniProt P06681 21-752)", "T3 sequence": "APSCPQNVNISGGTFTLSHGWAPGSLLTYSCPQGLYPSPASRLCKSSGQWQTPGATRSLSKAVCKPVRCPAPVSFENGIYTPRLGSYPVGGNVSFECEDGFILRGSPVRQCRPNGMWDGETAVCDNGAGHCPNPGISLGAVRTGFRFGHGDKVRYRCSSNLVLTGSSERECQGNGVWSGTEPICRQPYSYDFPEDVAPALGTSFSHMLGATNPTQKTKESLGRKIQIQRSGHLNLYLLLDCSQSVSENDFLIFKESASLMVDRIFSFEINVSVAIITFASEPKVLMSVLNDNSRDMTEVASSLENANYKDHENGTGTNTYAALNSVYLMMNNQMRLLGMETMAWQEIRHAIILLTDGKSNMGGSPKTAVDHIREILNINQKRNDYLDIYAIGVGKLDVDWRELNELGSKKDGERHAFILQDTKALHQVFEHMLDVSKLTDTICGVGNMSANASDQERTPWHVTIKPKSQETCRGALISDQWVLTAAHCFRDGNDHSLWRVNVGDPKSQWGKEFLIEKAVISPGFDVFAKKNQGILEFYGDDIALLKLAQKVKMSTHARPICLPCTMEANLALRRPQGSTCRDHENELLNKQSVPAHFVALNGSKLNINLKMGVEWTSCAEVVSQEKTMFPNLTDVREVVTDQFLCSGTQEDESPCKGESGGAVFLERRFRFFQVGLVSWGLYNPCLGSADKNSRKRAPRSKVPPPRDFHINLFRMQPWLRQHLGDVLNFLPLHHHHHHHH"}, "[4]": {"target": "T4, human C2 M648A (human, UniProt P06681 21-752)", "T4 sequence": "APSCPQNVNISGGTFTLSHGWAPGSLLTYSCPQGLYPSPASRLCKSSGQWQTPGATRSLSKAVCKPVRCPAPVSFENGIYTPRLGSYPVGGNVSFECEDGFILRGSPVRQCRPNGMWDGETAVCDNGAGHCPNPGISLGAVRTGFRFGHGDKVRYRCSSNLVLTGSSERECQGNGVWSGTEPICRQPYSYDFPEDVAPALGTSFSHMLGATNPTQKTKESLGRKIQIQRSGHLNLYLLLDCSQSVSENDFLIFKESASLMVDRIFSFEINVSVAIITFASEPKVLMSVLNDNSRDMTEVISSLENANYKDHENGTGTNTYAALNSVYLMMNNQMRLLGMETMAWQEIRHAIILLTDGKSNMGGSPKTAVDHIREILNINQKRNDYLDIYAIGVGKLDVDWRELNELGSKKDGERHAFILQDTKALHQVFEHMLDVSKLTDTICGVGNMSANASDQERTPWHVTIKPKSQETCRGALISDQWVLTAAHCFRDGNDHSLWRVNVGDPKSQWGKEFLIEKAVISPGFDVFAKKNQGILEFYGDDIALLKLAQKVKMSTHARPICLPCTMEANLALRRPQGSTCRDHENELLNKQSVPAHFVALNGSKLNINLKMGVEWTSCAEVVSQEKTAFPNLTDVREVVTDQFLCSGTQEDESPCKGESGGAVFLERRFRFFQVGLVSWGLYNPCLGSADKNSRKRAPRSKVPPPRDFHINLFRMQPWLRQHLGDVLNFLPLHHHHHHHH"}}, "data": [{"binder": "RF16-226 (antibody, human IgG4 S228P, lambda, pH-dependent anti-C2 antibody from a phage display library; also called WT) heavy: not shown light: SYELTQPPSVSVSPGQTARITCSGDALTSKYVAWYQQKSGLAPLLVIYEDTRRPSGIPAKFSGSSSGSVATLTISGAHGDDEADYYCYSTDASGHQRVFGGGTKLTVLSQPKAAPSVTLFPPSSEELQANKATLVCLISDFYPGAVTVAWKADGSPVKAGVETTKPSKQSNNKYAASSYLSLTPEQWKSHRSYSCQVTHEGSTVEKTVAPTECS", "values": [{"measurement": "Kd", "setting": "[1]", "result": 10.4, "unit": "nM"}, {"measurement": "Kd", "setting": "[2]", "result": 106, "unit": "nM"}, {"measurement": "Kd", "setting": "[3]", "result": 116, "unit": "nM"}, {"measurement": "Kd", "setting": "[4]", "result": 203, "unit": "nM"}]}]}
